According to patent US20260103522A1 (LONGBIO PHARMA SUZHOU, published 2026):

Target: T1, recombinant human FcεRIa extracellular region-mouse IgG2a Fc-6×His fusion protein (human; mouse, UniProt P12319 26-205)
T1 construct: extracellular domain; Self-produced; also called FcεRIa-mG2Ahis; DB3967; not shown: mouse IgG2a Fc
Assay: BLI (GatorBio), FcεRIa-mG2Ahis loaded on Anti-HIS probe, binding protein at 200, 50, 12.5 nM
Description: In order to verify the binding ability of the binding proteins to FcεRIa, the Bio-layer Interferometry (BLI, GatorBio) was used to detect the affinity of the binding proteins to FcεRIa. The detailed affinity assay method can be found in the usage or application instructions of the GatorBio instrument, which was briefly described as follows: […]

T1 sequence (P12319 26-205): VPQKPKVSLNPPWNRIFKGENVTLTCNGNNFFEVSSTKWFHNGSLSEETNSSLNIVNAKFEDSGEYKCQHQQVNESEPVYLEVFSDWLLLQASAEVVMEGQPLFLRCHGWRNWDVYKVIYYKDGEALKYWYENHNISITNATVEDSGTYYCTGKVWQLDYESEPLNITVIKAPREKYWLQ

Row | Binder | Kd
1 | binding protein DB177 (designed binder, Engineered human IgG Fc whose CH2 carries BC-LOOP, DE-TURN and FG-LOOP of IgE CH3) CSRDFTPPTVKILQSSCDGGGHFPPTIQLLCLVSGYTPGTINITWLEDGQVMDVDLSTASTTQEGELASTQSELTLSQKHWLSDRTYTCQVTYQGHTFEDSTKKCADSNPRGVSVFLFPPKPKDTLMISRTPEVTCVVVDLAPSKGTVKFNWYVDGVEVHNAKTKPREKQRNGTLTVVSVLTVLHQDWLNGKEYKCKVTHPHLPRALEKTISKAKGQPREPQVYTLPPSREEMTKNQVSLTCLVKGFYPSDIAVEWESNGQPENNYKTTPPVLDSDGSFFLYSKLTVDKSRWQQGNVFSCSVMHEALHNHYTQKSLSLSPGK | ~1 nM
2 | GPC3-specific binding protein DB-B230 (antibody, human IgG1, kappa, IgG-like molecule: Codrituzumab Fab fused to the engineered Fc; copies: 2 + 2) heavy: QVQLVQSGAEVKKPGASVKVSCKASGYTFTDYEMHWVRQAPGQGLEWMGALDPKTGDTAYSQKFKGRVTLTADKSTSTAYMELSSLTSEDTAVYYCTRFYSYTYWGQGTLVTVSSASTKGPSVFPLAPSSKSTSGGTAALGCLVKDYFPEPVTVSWNSGALTSGVHTFPAVLQSSGLYSLSSVVTVPSSSLGTQTYICNVNHKPSNTKVDKKVEPKSCDKTHTCPPCPADSNPRGVSVFLFPPKPKDTLMISRTPEVTCVVVDLAPSKGTVKFNWYVDGVEVHNAKTKPREKQRNGTLTVVSVLTVLHQDWLNGKEYKCKVTHPHLPRALEKTISKAKGQPREPQVYTLPPSREEMTKNQVSLTCLVKGFYPSDIAVEWESNGQPENNYKTTPPVLDSDGSFFLYSKLTVDKSRWQQGNVFSCSVMHEALHNHYTQKSLSLSPGK light: DVVMTQSPLSLPVTPGEPASISCRSSQSLVHSNRNTYLHWYLQKPGQSPQLLIYKVSNRFSGVPDRFSGSGSGTDFTLKISRVEAEDVGVYYCSQNTHVPPTFGQGTKLEIKRTVAAPSVFIFPPSDEQLKSGTASVVCLLNNFYPREAKVQWKVDNALQSGNSQESVTEQDSKDSTYSLSSTLTLSKADYEKHKVYACEVTHQGLSSPVTKSFNRGEC | ~1 nM
3 | binding protein DB364 (designed binder, Engineered IgG Fc with IgE CH3 loops) DFTPPTVKILQSSCDGGGHFPPTIQLLCLVSGYTPGTINITWLEDGQVMDVDLSTASTTQEGELASTQSELTLSQKHWLSDRTYTCQVTYQGHTFEDSTKKCADSNPRGVSVFLFPPKPKDTLMISRTPEVTCVVVDLAPSKGTVKFNWYVDGVEVHNAKTKPREKQRNGTLTVVSVLTVLHQDWLNGKEYKCKVTHPHLPRALEKTISKAKGQPREPQVYTLPPSREEMTKNQVSLTCLVKGFYPSDIAVEWESNGQPENNYKTTPPVLDSDGSFFLYSKLTVDKSRWQQGNVFSCSVMHEALHNHYTQKSLSLSPGK | ~1 nM
4 | binding protein DB365 (designed binder, Engineered IgG Fc with IgE CH3 loops) TKKCADSNPRGVSVFLFPPKPKDTLMISRTPEVTCVVVDLAPSKGTVKFNWYVDGVEVHNAKTKPREKQRNGTLTVVSVLTVLHQDWLNGKEYKCKVTHPHLPRALEKTISKAKGQPREPQVYTLPPSREEMTKNQVSLTCLVKGFYPSDIAVEWESNGQPENNYKTTPPVLDSDGSFFLYSKLTVDKSRWQQGNVFSCSVMHEALHNHYTQKSLSLSPGK | ~1 nM
5 | binding protein DB366 (designed binder, Engineered IgG Fc with IgE CH3 loops) CADSNPRGVSVFLFPPKPKDTLMISRTPEVTCVVVDLAPSKGTVKFNWYVDGVEVHNAKTKPREKQRNGTLTVVSVLTVLHQDWLNGKEYKCKVTHPHLPRALEKTISKAKGQPREPQVYTLPPSREEMTKNQVSLTCLVKGFYPSDIAVEWESNGQPENNYKTTPPVLDSDGSFFLYSKLTVDKSRWQQGNVFSCSVMHEALHNHYTQKSLSLSPGK | ~1 nM
6 | binding protein DB-B63 (designed binder, Engineered IgG Fc with IgE CH3 loops) CADSNPRGVSVFLFPPKPKDTLMISRTPEVTCVVVDLAPSKGTVNFNWYVDGVEVHNAKTKPREKQRNGTLTVVSVLTVLHQDWLNGKEYKCRVTHPHLPRALEKTISKAKGQPREPQVYTLPPSREEMTKNQVSLTCLVKGFYPSDIAVEWESNGQPENNYKTTPPVLDSDGSFFLYSKLTVDKSRWQQGNVFSCSVMHEALHNHYTQKSLSLSPGK | ~1 nM
7 | binding protein DB-B64 (designed binder, Engineered IgG Fc with IgE CH3 loops) CPAPELLGGPSVFLFPPKPKDTLMISRTPEVTCVVVDLAPSKGTVKFNWYVDGVEVHNAKTKPREKQRNGTLTVVSVLTVLHQDWLNGKEYKCKVTHPHLPRALEKTISKAKGQPREPQVYTLPPSREEMTKNQVSLTCLVKGFYPSDIAVEWESNGQPENNYKTTPPVLDSDGSFFLYSKLTVDKSRWQQGNVFSCSVMHEALHNHYTQKSLSLSPGK | ~1 nM
8 | Her2-specific binding protein DB871 (antibody, IgG-like molecule: Pertuzumab Fab fused to the engineered Fc (on the basis of DB177); copies: 2 + 2) heavy: EVQLVESGGGLVQPGGSLRLSCAASGFTFTDYTMDWVRQAPGKGLEWVADVNPNSGGSIYNQRFKGRFTLSVDRSKNTLYLQMNSLRAEDTAVYYCARNLGPSFYFDYWGQGTLVTVSSASTKGPSVFPLAPSSKSTSGGTAALGCLVKDYFPEPVTVSWNSGALTSGVHTFPAVLQSSGLYSLSSVVTVPSSSLGTQTYICNVNHKPSNTKVDKKVEPKSCSRDFTPPTVKILQSSCDGGGHFPPTIQLLCLVSGYTPGTINITWLEDGQVMDVDLSTASTTQEGELASTQSELTLSQKHWLSDRTYTCQVTYQGHTFEDSTKKCADSNPRGVSVFLFPPKPKDTLMISRTPEVTCVVVDLAPSKGTVKFNWYVDGVEVHNAKTKPREKQRNGTLTVVSVLTVLHQDWLNGKEYKCKVTHPHLPRALEKTISKAKGQPREPQVYTLPPSREEMTKNQVSLTCLVKGFYPSDIAVEWESNGQPENNYKTTPPVLDSDGSFFLYSKLTVDKSRWQQGNVFSCSVMHEALHNHYTQKSLSLSPGK light: not shown | ~1 nM
9 | Her2-specific binding protein DB872 (antibody, human IgG1, kappa, IgG-like molecule: Pertuzumab Fab fused to the engineered Fc (on the basis of DB366); copies: 2 + 2) heavy: EVQLVESGGGLVQPGGSLRLSCAASGFTFTDYTMDWVRQAPGKGLEWVADVNPNSGGSIYNQRFKGRFTLSVDRSKNTLYLQMNSLRAEDTAVYYCARNLGPSFYFDYWGQGTLVTVSSASTKGPSVFPLAPSSKSTSGGTAALGCLVKDYFPEPVTVSWNSGALTSGVHTFPAVLQSSGLYSLSSVVTVPSSSLGTQTYICNVNHKPSNTKVDKKVEPKSCDKTHTCPPCPADSNPRGVSVFLFPPKPKDTLMISRTPEVTCVVVDLAPSKGTVKFNWYVDGVEVHNAKTKPREKQRNGTLTVVSVLTVLHQDWLNGKEYKCKVTHPHLPRALEKTISKAKGQPREPQVYTLPPSREEMTKNQVSLTCLVKGFYPSDIAVEWESNGQPENNYKTTPPVLDSDGSFFLYSKLTVDKSRWQQGNVFSCSVMHEALHNHYTQKSLSLSPGK light: not shown | ~1 nM
10 | GPC3-specific binding protein DB-B229 (antibody, IgG-like molecule: Codrituzumab Fab fused to the engineered Fc; copies: 2 + 2) heavy: QVQLVQSGAEVKKPGASVKVSCKASGYTFTDYEMHWVRQAPGQGLEWMGALDPKTGDTAYSQKFKGRVTLTADKSTSTAYMELSSLTSEDTAVYYCTRFYSYTYWGQGTLVTVSSASTKGPSVFPLAPSSKSTSGGTAALGCLVKDYFPEPVTVSWNSGALTSGVHTFPAVLQSSGLYSLSSVVTVPSSSLGTQTYICNVNHKPSNTKVDKKVEPKSCSRDFTPPTVKILQSSCDGGGHFPPTIQLLCLVSGYTPGTINITWLEDGQVMDVDLSTASTTQEGELASTQSELTLSQKHWLSDRTYTCQVTYQGHTFEDSTKKCADSNPRGVSVFLFPPKPKDTLMISRTPEVTCVVVDLAPSKGTVKFNWYVDGVEVHNAKTKPREKQRNGTLTVVSVLTVLHQDWLNGKEYKCKVTHPHLPRALEKTISKAKGQPREPQVYTLPPSREEMTKNQVSLTCLVKGFYPSDIAVEWESNGQPENNYKTTPPVLDSDGSFFLYSKLTVDKSRWQQGNVFSCSVMHEALHNHYTQKSLSLSPGK light: DVVMTQSPLSLPVTPGEPASISCRSSQSLVHSNRNTYLHWYLQKPGQSPQLLIYKVSNRFSGVPDRFSGSGSGTDFTLKISRVEAEDVGVYYCSQNTHVPPTFGQGTKLEIKRTVAAPSVFIFPPSDEQLKSGTASVVCLLNNFYPREAKVQWKVDNALQSGNSQESVTEQDSKDSTYSLSSTLTLSKADYEKHKVYACEVTHQGLSSPVTKSFNRGEC | ~1 nM
